Data from PMC11101322, “VvWRKY5 positively regulates wounding-induced anthocyanin accumulation in grape by interplaying with VvMYBA1 and promoting jasmonic acid biosynthesis”.

T1: VvWRKY5-HIS (Vitis vinifera, UniProt F6HUN4 7-329)
T1 sequence: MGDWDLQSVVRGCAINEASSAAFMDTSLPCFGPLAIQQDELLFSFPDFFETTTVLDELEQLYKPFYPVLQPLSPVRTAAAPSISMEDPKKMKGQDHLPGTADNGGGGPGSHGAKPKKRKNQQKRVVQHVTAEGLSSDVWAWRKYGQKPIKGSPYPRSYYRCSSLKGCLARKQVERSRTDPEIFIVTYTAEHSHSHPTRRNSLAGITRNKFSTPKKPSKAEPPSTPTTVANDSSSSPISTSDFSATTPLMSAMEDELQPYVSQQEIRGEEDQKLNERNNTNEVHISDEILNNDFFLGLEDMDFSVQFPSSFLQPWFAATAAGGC

T2: VvMYBA1-HIS (Vitis vinifera, UniProt Q6L9M9 1-250)
T2 sequence: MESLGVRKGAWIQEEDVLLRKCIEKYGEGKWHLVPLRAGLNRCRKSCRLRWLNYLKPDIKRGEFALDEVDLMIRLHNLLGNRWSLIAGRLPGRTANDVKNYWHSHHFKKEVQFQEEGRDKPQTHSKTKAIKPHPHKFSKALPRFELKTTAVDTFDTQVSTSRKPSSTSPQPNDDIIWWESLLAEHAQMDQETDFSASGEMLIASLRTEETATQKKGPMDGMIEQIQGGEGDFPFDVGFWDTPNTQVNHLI


Tests used:
VvWRKY5-HIS = molecular target: T1, VvWRKY5-HIS; test: EMSA; LightShift Chemiluminescent EMSA system; buffer, salt, pH and temperature not stated; details: protein: recombinant, tags: His (pET-32a fusion), blunt
VvMYBA1-HIS = molecular target: T2, VvMYBA1-HIS; test: as above; details: protein: recombinant; tags: His (pET-32a fusion); label: biotin; blunt

Binder | binding result (VvWRKY5-HIS) | binding result (VvMYBA1-HIS) | binding result (VvWRKY5-HIS; label: biotin)
VvLOX mutant probe (dsDNA) DNA 1: ACCAGCCAATGGAAAATAGCGAAAATACCTAGTCTATTCC DNA 2: GGAATAGACTAGGTATTTTCGCTATTTTCCATTGGCTGGT | no binding |  | 
VvUFGT probe (dsDNA) DNA 1: GGATGACAACCCCCATGCAGTTGCCACTCTCACAACCCCC DNA 2: GGGGGTTGTGAGAGTGGCAACTGCATGGGGGTTGTCATCC |  | binds | no binding
